From US8106168B2, “Metalloproteinase binding proteins” (Dyax Corp., priority 2005, dated 2012)
Values belong to the molecule of their own block, whether it stands above or below them.

Target: MMP-14 (Homo sapiens, UniProt P50281)
Test: Selection and phage ELISA screening of anti-MMP-14 Fabs
Format: binding
Details: Fab from FAB310 phage display library
Protocol: Strategy I: A 100-fold excess of the FAB310 library (e.g., an amount of the library that should contain 100 copies of each library member) was depleted of streptavidin-binding antibodies by incubating the library with 200 μL of streptavidin beads for 1 hour at room temperature (RT) with rotation. 500 nM of biotinylated MMP-14 was coupled to streptavidin beads by incubation with 100 μL of streptavidin beads. The MMP-14 beads were then incubated with the streptavidin-depleted library for 1 hour at RT with rotation. The beads were then rinsed three times with 2% MTRIS/0.1% Tween, transferred to a fresh tube and washed an additional three times with 2% MTRIS/0.1% Tween, and transferred to a fresh tube and washed a final time with Round 1 TRIS buffer (50 mM TRIS; 50 mM CaCl2; 150 mM NaCl, pH 7.5).
MMP-14 binding antibodies were eluted from the beads by re-suspension in 1 mL 2% MTRIS containing 2.5 μM TIMP-2 and incubation for 1 hour at RT with rotation. The beads were then washed three times with 2% MTRIS/0.1% Tween, transferred to a fresh tube and washed three times with TRIS/0.1% Tween, and transferred to a fresh tube and washed a final time with TRIS. 1 mL output was used for infection of 9 mL TG1 bacteria (grown to OD600=0.5). The beads were further eluted by suspension in 1 mL 100 mM TEA for 10 minutes. The supernatant was neutralized with 500 μl TRIS/HCl pH 7.5. 1 mL of the second elution was used for infection of 9 mL TG1 bacteria (grown to OD600=0.5).
Two additional rounds of selection were carried out under the same conditions as the first round, except that the streptavidin beads were loaded with 100 nM biotinylated MMP-14 and the number of washes were doubled (6 times with 2% MTRIS/0.1% Tween, 6 times with TRIS/0.1% Tween and 2 times with TRIS), and Round 2/3 Tris buffer (50 mM TRIS; 5 mM CaCl2; 150 mM NaCl pH=7.5) was used for incubation and wash.
TIMP-2 was coupled to carboxylic beads, then complexed with a combination of biotinylated MMP-14 (500 nM each). The complexed beads were incubated with a 100 fold excess of FAB310 library that had been previously depleted by incubation with streptavidin beads and carboxylic beads. Elution/washing was carried out as for Strategy I.
Two additional rounds of selection were carried out, essentially as described for Strategy I, except that only 100 nM of each of MMP-14 were used in the bead complexes.
384-well plates were coated with biotinylated BSA (2 μg/ml in 50 mM TRIS; 5 mM CaCl2; 150 mM NaCl, pH 7.5), then washed 3 times with 50 mM TRIS; 5 mM CaCl2; 150 mM NaCl, pH 7.5; 0.1% Tween. Streptavidin was captured on the coated plates by incubation with 10 μg/mL streptavidin in 50 mM TRIS; 5 mM CaCl2; 150 mM NaCl pH 7.5; 0.5% Gelatin, followed by a wash with 50 mM TRIS; 5 mM CaCl2; 150 mM NaCl pH=7.5; 0.1% Tween. On the day the assay was to be performed, biotinylated MMP-14 (1 μg/ml) was captured in 50 mM TRIS; 5 mM CaCl2; 150 mM NaCl, pH 7.5.
95 clones were picked from each of Round 2 and Round 3 of each selection strategy, producing 12 masterplates. ELISA was run on the MiniTrak-5 deck according to SOP.

bind to human MMP-14: bind to human MMP-14
B1: M0030-D08: Fab that binds human MMP-14; DNA LV SEQ ID NO: 8, HV SEQ ID NO: 9 (antibody, V domains shown)
VH: EVQLLESGGGLVQPGGSLRLSCAASGFTFSIYQMYWVRQAPGKGLEWVSSIVPSGGLTKYADSVKGRFTISRDNSKNTLYLQMNSLRAEDTAVYYCARERLRYFDWSDRVGESGDYWGQGTLVTVSS
VL: QDIQMTQSPSSLSASVGDRVTMTCRAGQNIKSYLNWYQQKPGKAPQVLIYAASTLQSGVSSRFRGSGSGTHFTLTISDLQPGDSATYYCQQSFSTPRSFGQGTSWRS

bind to human MMP-14: bind to human MMP-14
B2: M0038-E12: Fab that binds human MMP-14; DNA LV SEQ ID NO: 60, HV SEQ ID NO: 61 (antibody, V domains shown)
VL: QDIQMTQSPSSLSASVGDSVTITCRASQNINSYLNWYQQKPGKAPKLLIYVASNLQRGVPSRFGGSGSGTDFTLTITSLQPEDFATYSCQQTYSTPLTFGGGTKVEIK
VH: EVQLLESGGGLVQPGGSLRLSCAASGFTFSKYWMMWVRQAPGKGLEWVSVIYPSGGITYYADSVKGRFTISRDNSKNTLYLQMNSLRAEDTAVYYCARLPSWGFDALDIWGQGTMVTVSS
modifications: Synthetically generated oligonucleotide

bind to human MMP-14: bind to human MMP-14
B3: M0039-D02: Fab that binds human MMP-14; DNA LV SEQ ID NO: 70, HV SEQ ID NO: 71 (protein)
chain 1: QDIQMTQSPSSLSASVGDRVTITCRASQSISSYLNWYQQKPGKAPKLLIYDASNLETGVPSRFSGSGSGTDFTFTISSLQPEDIATYYCQQFDDLPLTFAGGTKVELKRT
chain 2: EVQLLESGGGLVQPGGSLRLSCAASGFTFSLYVMIWVRQAPGKGLEWVSGIYSSGGDTYYADSVKGRFTISRDNSKNTLYLQMNSLRAEDTAVYYCARGQQLGGGAFDIWGQGTMVTVSS
modifications: Synthetically generated oligonucleotide

bind to human MMP-14: bind to human MMP-14
B4: M0039-B07: Fab that binds human MMP-14; DNA LV SEQ ID NO: 68, HV SEQ ID NO: 69 (antibody, V domains shown)
VL: QDIQMTQSPLSLSASVGDRVTITCRASQGISNYLAWYQQKPGKVPKLLIYAASTLQSGVPSRFSGSGSGTDFTLTISSLQPEDVATYYCQKYNSARLTFGGGTKVEIK
VH: EVQLLESGGGLVQPGGSLRLSCAASGFTFSLYPMLWVRQAPGKGLEWVSGISPSGGQTFYADSVKGRFTISRDNSKNTLYLQMNSLRAEDTAVYYCARMAYYSGYFDLWGRGTLVTVSS
modifications: Synthetically generated oligonucleotide

bind to human MMP-14: bind to human MMP-14
B5: M0038-H06: Fab that binds human MMP-14; DNA LV SEQ ID NO: 66, HV SEQ ID NO: 67 (antibody, V domains shown)
VL: QDIQMTQSPGTLSLSPGEGATLSCRASQIINPFYVAWYQQRPGQAPRLLIYASSRRAGGIPDRFSGSASGTDFTLTISRLEPEDFAVYYCQYFYNSMWTFGQGAKVEIR
VH: EVQLLESGGGLVQPGGSLRLSCAASGFTFSWYNMTWVRQAPGKGLEWVSRISPSGGDTFYADSVKGRFTISRDNSKNTLYLQMNSLRAEDTAVYYCARAAIAPRPYGMDVWGQGTTVTVSS
modifications: Synthetically generated oligonucleotide

bind to human MMP-14: bind to human MMP-14
B6: M0039-D10: Fab that binds human MMP-14; DNA LV SEQ ID NO: 72, HV SEQ ID NO: 73 (antibody, V domains shown)
VL: QDIQMTQSPDTVSFSPGERASLSCRASQSVRSDLAWYQQKPGQAPRLLIYGASNRATGIPVRFSGSGSGTDFTLTISRLEPEDFAVYYCQQYGSSPLFTFGPGTKVDIK
VH: EVQLLESGGGLVQPGGSLRLSCAASGFTFSMYNMAWVRQAPGKGLEWVSWIYSSGGLTLYADSVKGRFTISRDNSKNTLYLQMNSLRAEDTAVYYCAKGSNTYYFDASGLGAFNMWGQGTMVTVSS
modifications: Synthetically generated oligonucleotide
